Measured values as given in the supplement of paper PMC9732359.
± gives the uncertainty stated by the source.

Test: protein stability index of a GFP-peptide fusion (yeast GPS) (PSI 1-4); higher = more stable; sorted into four equal gates, so the index is relative within each strain
Procedure, shortened: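 Sequencing reads from sorted gates were used to score each peptide. The library consisted of tiled 17-residue yeast protein peptides fused downstream of GFP on a Cherry-expressing plasmid, pooled and carried in yeast. Mid-log cultures in leucine-free medium were split into four equal gates by GFP/Cherry ratio, and each gate's plasmids were PCR-amplified and Illumina-sequenced. The protein stability index adds up, over all gates, the read frequency multiplied by the gate number.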

Sequence | protein stability index (doa10∆) | protein stability index (pdr5∆) | protein stability index (san1∆) | protein stability index (ubr1∆)
AQDEVFSLAFSPNRYWL [ASC1] | 2.78 ± 0.24 | 2.75 ± 0.17 | 2.54 ± 0.18 | 2.38 ± 0.19
ATAIGKGSVAAKTFLEK [PRE8] | 2.13 ± 0.2 | 1.28 ± 0.17 |  | 
ARNLYIIAVKGSGSRLN [RPL23A] | 1.27 ± 0.041 | 1.19 ± 0.044 | 1.22 ± 0.088 | 1.35 ± 0.042
DPKRLFEGNALIRRLVR [RPS9A] |  | 3.52 ± 0.28 |  | 
RHTTGTGRMRYLKHVSR [RPL37A] | 3.14 ± 0.11 | 3.26 ± 0.081 | 3.55 ± 0.081 | 3.1 ± 0.11
HEKIEDEDEDNDLDEDD [RPN4] | 3.56 ± 0.2 | 3.44 ± 0.09 | 3.55 ± 0.086 | 3.45 ± 0.11
RIHVNPSYYGVRDTSPH [BRR2] | 1.96 ± 0.1 | 1.93 ± 0.072 | 1.74 ± 0.085 | 1.9 ± 0.058
SLVKYPELLDSLAILGM [SWI1] | 1.89 ± 0.06 | 2.31 ± 0.054 | 1.99 ± 0.075 | 2.16 ± 0.051
TINISLSFSWAILLIIN [NUT1] | 1.35 ± 0.06 | 1.61 ± 0.054 | 1.93 ± 0.078 | 2.43 ± 0.044
EGQENNYNSTSRSTEKK [SIR4] | 3.3 ± 0.17 | 3.26 ± 0.13 | 2.65 ± 0.17 | 3.25 ± 0.11
LKHYNGYDINYISKIGE [SWI1] | 2.81 ± 0.056 | 2.71 ± 0.049 | 2.07 ± 0.066 | 2.62 ± 0.053
ETPNQDATYDSALELVG [RPN6] | 2.62 ± 0.088 | 2.86 ± 0.072 | 2.61 ± 0.081 | 2.6 ± 0.1
LQSLNESKDLLRASFNK [SRB4] | 3.16 ± 0.13 | 3.32 ± 0.13 | 2.98 ± 0.083 | 3.48 ± 0.075
KQQPTMQANKLDSQETP [SWI3] | 2.95 ± 0.12 | 2.98 ± 0.073 | 2.92 ± 0.081 | 2.95 ± 0.071
THRNKDGTGVRVIVAGT [FAS1] | 2.16 ± 0.26 | 1.59 ± 0.082 | 1.62 ± 0.21 | 1.6 ± 0.15
IQVAAFIYGMSAKDHPK [PRP8] | 3.24 ± 0.091 | 2.98 ± 0.12 | 3.19 ± 0.082 | 3.17 ± 0.12
VASLVLARGHRVEKIPE [RPL4A] |  | 3.4 ± 0.24 |  | 
VVDQLWSEISNELPDIE [RPN2] | 2.38 ± 0.12 | 2.94 ± 0.1 | 2.75 ± 0.12 | 2.69 ± 0.046
KSESDELQMRSFLKEGD [RRP4] | 3.18 ± 0.13 | 2.71 ± 0.23 | 3.09 ± 0.12 | 3.16 ± 0.096
INKQRVPLSDNAIIEAN [RPL7A] | 2.6 ± 0.058 | 2.61 ± 0.064 | 2.51 ± 0.066 | 2.54 ± 0.053
LVQKTVQESGNIDYQKG [GRR1] | 3.5 ± 0.1 | 3.37 ± 0.095 | 3.2 ± 0.09 | 3.23 ± 0.1
TAEFGKILAGLHDTQIE [RPN10] | 3.23 ± 0.11 | 3.44 ± 0.11 | 3.13 ± 0.14 | 3.02 ± 0.1
TKDLLSKSPSEWQDIIH [CSE2] | 3.1 ± 0.082 | 2.99 ± 0.077 | 3.07 ± 0.075 | 3.17 ± 0.049
YLEESFTNLGIIVQYLT [RGR1] | 2.17 ± 0.2 | 2.49 ± 0.29 | 2.16 ± 0.19 | 2.8 ± 0.09
LGMGKAVEKTLALGCHF [POP7] | 1.98 ± 0.097 | 2.16 ± 0.08 | 2.6 ± 0.1 | 2.38 ± 0.088
NLLPKKSAKATKASQEL [HTA1] | 2.93 ± 0.1 | 3.09 ± 0.12 | 3.17 ± 0.069 | 3.03 ± 0.088
SGKSNTSNDASNKKETK [ITC1] | 3.14 ± 0.076 | 3.26 ± 0.073 | 3.29 ± 0.058 | 3.18 ± 0.06
TTIEEIFLHSLPVKEFQ [RPS2] | 2.82 ± 0.067 | 2.78 ± 0.069 | 3.01 ± 0.067 | 2.79 ± 0.073

Sequence | protein stability index (doa10∆) | protein stability index (pdr5∆) | protein stability index (san1∆) | protein stability index (ubr1∆)
TIQSDLNLSLHKLDLAK [SMC2] | 2.81 ± 0.049 | 2.79 ± 0.035 | 3.01 ± 0.038 | 2.828 ± 0.028
VQQFAQLPVGFKNMGNT [UBP6] | 2.03 ± 0.1 | 1.74 ± 0.076 | 1.44 ± 0.15 | 1.92 ± 0.06
KAKERLQALKANDEEAY [SNF2] | 1.81 ± 0.14 | 2.51 ± 0.15 | 2.55 ± 0.067 | 1.77 ± 0.045
IIKGTDVYSPEKGSWEQ [BRR2] | 3.1 ± 0.06 | 3.35 ± 0.075 | 3.24 ± 0.11 | 3.25 ± 0.13
MSVSDNDQALIKVLLRQ [RET1] | 2.48 ± 0.052 | 2.62 ± 0.069 | 2.71 ± 0.067 | 2.6 ± 0.053
NRLSRIHLYMLTFHTLK [YLR018C/POM34] | 1.42 ± 0.068 | 1.58 ± 0.06 | 1.54 ± 0.12 | 1.44 ± 0.047
KAPNAVVITFEKEDHTL [RPB11] | 1.26 ± 0.077 | 2.7 ± 0.12 | 2.19 ± 0.091 | 1.97 ± 0.076
FPGDSFPVDPTTPVKLG [RRP40] | 2.45 ± 0.058 | 2.58 ± 0.053 | 2.65 ± 0.045 | 2.62 ± 0.048
DDNETENPNFWRQFGNR [GRR1] | 3.17 ± 0.076 | 3.23 ± 0.056 | 3.31 ± 0.06 | 3.21 ± 0.056
QCPVKSAEDQLYAITFR [QCR2] | 3.14 ± 0.12 | 2.83 ± 0.25 | 3.13 ± 0.14 | 3.09 ± 0.16
PFSYLIDETMMDKPLNF [SRB5] | 2.88 ± 0.11 | 3.09 ± 0.073 | 2.83 ± 0.067 | 2.97 ± 0.054
KAIRGMVSHKTARGKAA [RPL16B] | 1.94 ± 0.056 | 2.01 ± 0.057 | 2.14 ± 0.087 | 2.62 ± 0.039
KMIILDKLLKRLKEKGS [ISW2] | 1.58 ± 0.049 | 1.32 ± 0.061 | 1.35 ± 0.12 | 1.44 ± 0.055
KFKLLNGLAIRRAAYGV [RPS3] | 2 ± 0.046 | 2.15 ± 0.047 | 1.88 ± 0.062 | 1.86 ± 0.048
LLGEGESKLKIDPDTKA [RPB11] | 2.93 ± 0.19 |  |  | 3.14 ± 0.24
VRWIETQDVFLKDFNTE [FAS2] | 3.227 ± 0.03 | 3.065 ± 0.026 | 3.014 ± 0.025 | 3.154 ± 0.021
LSRKPSDNKKRSGSNAA [RPC82] | 2.92 ± 0.06 | 3.31 ± 0.064 | 3.03 ± 0.045 | 3.03 ± 0.044
HKQELQDLILDLKKKLN [SMC4] | 2.55 ± 0.078 | 2.75 ± 0.16 | 2.31 ± 0.062 | 1.75 ± 0.058
IKNLTVQLSPSNPQHII [RGR1] | 2.6 ± 0.052 | 2.74 ± 0.05 | 2.42 ± 0.062 | 2.67 ± 0.049
HRSKKDQDQYLEIAKDF [IRR1] | 3.15 ± 0.14 | 3.21 ± 0.12 | 3.04 ± 0.13 | 3.6 ± 0.27
NLERLRSDLQSKIQEIE [YIL149C/MLP2] | 3.08 ± 0.077 | 3.37 ± 0.076 | 3.49 ± 0.073 | 3.33 ± 0.1
HGKPTKGSSLASAASEA [SSN8] | 1.95 ± 0.08 | 2.42 ± 0.068 | 2.19 ± 0.088 | 2.73 ± 0.032
ELALKTLSKTTDSSALT [PRE9] | 2.62 ± 0.057 | 2.1 ± 0.06 | 2.54 ± 0.065 | 2.73 ± 0.043
KCVVIHNGSHRTVAGFS [ARP7] | 2.67 ± 0.051 | 2.74 ± 0.048 | 2.54 ± 0.051 | 2.67 ± 0.035
KKCHRLLWTPKKLEITS [RPR2] | 2.35 ± 0.045 | 2.48 ± 0.044 | 2.59 ± 0.038 | 2.34 ± 0.031
TKFLAKNGVIPEESKGS [SWP82] | 3.19 ± 0.096 | 3.16 ± 0.11 | 2.98 ± 0.15 | 3.45 ± 0.13
VTNDLDTSAEKDQIQAG [SIR4] | 3.32 ± 0.12 | 3.36 ± 0.12 | 3.28 ± 0.11 | 3.21 ± 0.073
